Results taken from patent US6323001A, “Increasing the trehalose content of organisms by transforming them with combinations of the structural genes for trehalose synthase” (BTG International Ltd., priority 1994, dated 2001).

Test system: phosphoglucoisomerase (PGI) activity
Experiment: PGI activity of TPS activator
Format: biochemical, S. cerevisiae
Details: 50 mM HEPES/KOH pH 7.0, 5 mM MgCl2, 5 mM F6P; stored several months at 0° C.
Description: The PGI activity of a sample of TPS activator that had been stored for several months at 0° C. was measured in 50 mM HEPES/KOH pH 7.0, 5 mM MgCl2, 5 mM F6P and 0.4 mg/ml NADP. A specific activity of 190 U/mg was found.

B1: TPS activator: TPS activator from S. cerevisiae, identical to yeast phosphoglucoisomerase (protein, UniProt P12709 2-554, looked up)
Glucose-6-phosphate isomerase: SNNSFTNFKLATELPAWSKLQKIYESQGKTLSVKQEFQKDAKRFEKLNKTFTNYDGSKILFDYSKNLVNDEIIAALIELAKEANVTGLRDAMFKGEHINSTEDRAVYHVALRNRANKPMYVDGVNVAPEVDSVLKHMKEFSEQVRSGEWKGYTGKKITDVVNIGIGGSDLGPVMVTEALKHYAGVLDVHFVSNIDGTHIAETLKVVDPETTLFLIASKTFTTAETITNANTAKNWFLSKTGNDPSHIAKHFAALSTNETEVAKFGIDTKNMFGFESWVGGRYSVWSAIGLSVALYIGYDNFEAFLKGAEAVDNHFTQTPLEDNIPLLGGLLSVWYNNFFGAQTHLVAPFDQYLHRFPAYLQQLSMESNGKSVTRGNVFTDYSTGSILFGEPATNAQHSFFQLVHQGTKLIPSDFILAAQSHNPIENKLHQKMLASNFFAQAEALMVGKDEEQVKAEGATGGLVPHKVFSGNRPTTSILAQKITPATLGALIAYYEHVTFTEGAIWNINSFDQWGVELGKVLAKVIGKELDNSSTISTHDASTNGLINQFKEWM
B1 gave a PGI specific activity of 190 U/mg.
